Reference: patent US20230012273A1 (Boehringer Ingelheim, published 2023)

T1: cynomolgus SIRPγ (XP_005568591) extracellular domain + His-tag (cynomolgus monkey, UniProt Q9P1W8 29-359 (human entry))
T1 construct: SPR analyte; also called Cyno SIRPγ XP_005568591; cynoSIRPγ; not shown: His-tag
T1 chain: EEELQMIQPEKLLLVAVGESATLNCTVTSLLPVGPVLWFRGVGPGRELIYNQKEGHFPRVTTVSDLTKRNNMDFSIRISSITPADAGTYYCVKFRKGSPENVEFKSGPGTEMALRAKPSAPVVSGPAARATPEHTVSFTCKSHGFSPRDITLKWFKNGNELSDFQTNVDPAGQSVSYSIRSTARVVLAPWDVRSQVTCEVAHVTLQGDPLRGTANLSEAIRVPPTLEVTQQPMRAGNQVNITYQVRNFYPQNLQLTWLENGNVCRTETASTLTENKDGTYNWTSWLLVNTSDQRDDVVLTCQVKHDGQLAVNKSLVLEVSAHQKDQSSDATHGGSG

T2: full-length human SIRPγ EN→DD on Expi-CHO cells (human, UniProt Q9P1W8 29-387)
T2 construct: the entry already carries the change (PENV to PDDV)
T2 chain: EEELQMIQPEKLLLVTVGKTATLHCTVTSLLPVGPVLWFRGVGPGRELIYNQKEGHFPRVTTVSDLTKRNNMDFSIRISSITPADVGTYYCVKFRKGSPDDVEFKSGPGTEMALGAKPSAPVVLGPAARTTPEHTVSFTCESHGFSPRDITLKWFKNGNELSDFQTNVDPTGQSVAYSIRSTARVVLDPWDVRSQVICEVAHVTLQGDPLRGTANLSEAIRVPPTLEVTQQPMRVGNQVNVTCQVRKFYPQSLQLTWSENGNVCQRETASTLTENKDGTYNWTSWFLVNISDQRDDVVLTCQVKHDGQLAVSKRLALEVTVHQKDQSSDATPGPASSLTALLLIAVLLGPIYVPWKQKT

T3: full-length cyno SIRPα (XP_015313155) on CHO-K1 cells, clone P3HD10 (cynomolgus monkey)
T3 chain: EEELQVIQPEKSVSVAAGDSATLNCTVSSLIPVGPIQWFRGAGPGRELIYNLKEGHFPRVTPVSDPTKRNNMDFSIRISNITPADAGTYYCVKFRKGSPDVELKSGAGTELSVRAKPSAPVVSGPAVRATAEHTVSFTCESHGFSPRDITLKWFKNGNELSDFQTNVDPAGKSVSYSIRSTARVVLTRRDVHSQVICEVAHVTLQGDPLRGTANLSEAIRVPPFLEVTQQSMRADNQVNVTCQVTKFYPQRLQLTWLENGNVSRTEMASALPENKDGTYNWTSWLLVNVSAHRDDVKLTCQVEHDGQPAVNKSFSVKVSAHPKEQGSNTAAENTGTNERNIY

T4: full-length cyno SIRPα (NP_001271679) on CHO-K1 cells, clone HC6 (cynomolgus monkey, UniProt A0A2K5VYQ9)
T4 construct: whole, on cells
T4 sequence: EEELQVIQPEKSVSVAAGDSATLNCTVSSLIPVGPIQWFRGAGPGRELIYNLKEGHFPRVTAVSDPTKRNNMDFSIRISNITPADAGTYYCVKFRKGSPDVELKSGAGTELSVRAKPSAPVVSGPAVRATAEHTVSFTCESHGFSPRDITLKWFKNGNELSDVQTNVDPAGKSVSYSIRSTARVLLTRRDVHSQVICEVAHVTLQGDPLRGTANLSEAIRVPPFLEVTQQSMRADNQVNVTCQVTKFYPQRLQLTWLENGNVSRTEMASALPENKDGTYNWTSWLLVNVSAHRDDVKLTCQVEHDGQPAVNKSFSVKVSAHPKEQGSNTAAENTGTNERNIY


Columns and labels:
[1] = biological target: T1, cynomolgus SIRPγ (XP_005568591) …; assay: SPR
Procedure, shortened: (§1)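 SPR; Ab capture surface, ethanolamine-deactivated (1M, 420 s, 10 μl/min). Analyte: SIRP ECD+His, 2-fold dilution series in 1×HBS-EP+. Inject 300 s @ 30 μl/min; dissoc. 600 s.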

[2] = biological target: T2, full-length human SIRPγ EN→DD on …; assay: flow cytometry, Expi-CHO cells expressing full-length human SIRPγ EN→DD
Description: Expi-CHO parental cells are transduced with lentiviruses containing either full-length wild-type human SIRPγ ([…]) or full-length human SIRPγ with amino acid point mutations (Table 64) and sorted to achieve matching expression levels. These cells are blocked with donkey IgG and incubated on ice with increasing concentrations of antibodies for 60 minutes, washed and stained with AF647-conjugated donkey F(ab′)₂ anti-human IgG antibodies. Stained cells are washed, fixed, and analyzed by flow cytometry. Median fluorescent intensity is determined and used as a measure of antibody binding.

[3] = biological target: T5, human SIRPγ extracellular domain + His-tag (NP_061026.2) (human, UniProt Q9P1W8 29-360); assay: SPR, Ab captured, ECD-His analyte
T5 construct: also called hSIRPγ; HuSIRPγ
Procedure, shortened: as §1

[4] = biological target: T6, human SIRPβL/SIRPβ1v3 extracellular domain + His-tag (NP_001129316.1) (human, UniProt Q5TFQ8 30-371); assay: SPR, Ab captured, ECD-His analyte
T6 construct: also called hSIRPβ1v3; HuSIRPβ1v3
Procedure, shortened: as §1

[5] = biological target: T7, human SIRPβ1 extracellular domain + His-tag (NP_006056.2) (human, UniProt O00241 30-371); assay: SPR, Ab captured, ECD-His analyte
T7 construct: also called hSIRPβ1; HuSIRPβ1
Procedure, shortened: as §1

[6] = biological target: T3, full-length cyno SIRPα (XP_015313155) …; assay: flow cytometry, CHO-K1 cells
Description: (§2) Antibody binding to cells expressing cynomolgus (cyno) SIRPα was evaluated by flow cytometry. CHO-K1 cells expressing full-length cyno SIRPα; derived from protein sequence accession numbers (A) EGM-02252; (B) XP_015313155; or (C) NP_001271679, are blocked with donkey IgG and incubated on ice with increasing concentrations of antibodies for 60 minutes, washed and stained with AF647-conjugated donkey F(ab′)₂ anti-human IgG secondary reagent. Cells are washed, fixed, and analyzed by flow cytometry. Median fluorescent intensity is determined and used as a measure of antibody binding.

[7] = biological target: T4, full-length cyno SIRPα (NP_001271679) …; assay: flow cytometry, CHO-K1 cells
Description: as §2

[8] = biological target: full-length human SIRPβ1 D→H on Expi-CHO cells (human, UniProt O00241 30-398); assay: flow cytometry, Expi-CHO cells
Description: These cells are blocked with donkey IgG and incubated on ice with increasing concentrations of antibodies for 60 minutes, washed and stained with AF647-conjugated donkey F(ab′)₂ anti-human IgG antibodies. Stained cells are washed, fixed, and analyzed by flow cytometry. Median fluorescent intensity is determined and used as a measure of antibody binding.

T6 sequence (Q5TFQ8 other isoform, or with tags, fused parts or gaps): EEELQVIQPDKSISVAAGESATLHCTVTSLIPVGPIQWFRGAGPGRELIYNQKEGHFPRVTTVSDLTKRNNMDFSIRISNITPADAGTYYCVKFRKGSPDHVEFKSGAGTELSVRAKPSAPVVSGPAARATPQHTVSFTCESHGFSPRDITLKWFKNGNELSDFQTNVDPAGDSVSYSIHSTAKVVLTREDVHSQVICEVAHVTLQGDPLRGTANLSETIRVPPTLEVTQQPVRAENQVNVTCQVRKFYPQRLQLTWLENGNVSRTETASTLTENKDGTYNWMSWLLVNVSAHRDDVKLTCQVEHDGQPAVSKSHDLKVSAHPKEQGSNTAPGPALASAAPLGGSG
T5 sequence (Q9P1W8 29-360): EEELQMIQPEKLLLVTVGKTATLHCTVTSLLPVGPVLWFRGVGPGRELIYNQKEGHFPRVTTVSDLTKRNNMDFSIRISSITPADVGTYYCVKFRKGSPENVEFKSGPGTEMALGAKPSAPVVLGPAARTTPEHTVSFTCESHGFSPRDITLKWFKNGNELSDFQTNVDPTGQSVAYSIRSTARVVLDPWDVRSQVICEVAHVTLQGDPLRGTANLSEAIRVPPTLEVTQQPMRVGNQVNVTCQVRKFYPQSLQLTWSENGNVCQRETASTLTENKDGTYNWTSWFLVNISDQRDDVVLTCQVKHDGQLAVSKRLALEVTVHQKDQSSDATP
T7 sequence (O00241 other isoform, or with tags, fused parts or gaps): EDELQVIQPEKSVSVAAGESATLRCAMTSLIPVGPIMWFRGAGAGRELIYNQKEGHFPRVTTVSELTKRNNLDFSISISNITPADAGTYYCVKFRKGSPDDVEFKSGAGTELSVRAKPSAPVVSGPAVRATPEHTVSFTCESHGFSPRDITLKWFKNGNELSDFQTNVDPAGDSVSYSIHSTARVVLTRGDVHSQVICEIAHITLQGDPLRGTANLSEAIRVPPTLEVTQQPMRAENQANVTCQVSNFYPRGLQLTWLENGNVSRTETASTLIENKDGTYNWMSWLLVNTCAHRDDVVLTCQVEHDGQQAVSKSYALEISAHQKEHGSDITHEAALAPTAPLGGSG
Sequence of full-length human SIRPβ1 D→H on Expi-CHO cells (O00241 30-398 D130H): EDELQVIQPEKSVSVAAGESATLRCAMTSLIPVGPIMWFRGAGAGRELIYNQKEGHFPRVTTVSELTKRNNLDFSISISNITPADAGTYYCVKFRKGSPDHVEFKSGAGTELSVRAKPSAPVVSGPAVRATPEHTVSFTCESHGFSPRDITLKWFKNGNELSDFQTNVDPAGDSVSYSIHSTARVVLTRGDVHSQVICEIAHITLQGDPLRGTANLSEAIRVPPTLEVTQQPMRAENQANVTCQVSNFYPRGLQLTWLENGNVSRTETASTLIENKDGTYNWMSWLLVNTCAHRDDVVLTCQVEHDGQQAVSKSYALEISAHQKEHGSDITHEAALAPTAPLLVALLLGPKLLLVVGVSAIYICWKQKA

binding result [1] | binding result [2] | binding result [3] | binding result [4] | Kd [5] [nM] | fold weaker EC50 than on clone H3A9 [6] [fold] | fold weaker EC50 than on clone H3A9 [7] [fold] | binding result [8] | Binder
no binding (tested: 1000 nM) | no binding (tested: about 67 nM) |  |  |  |  |  |  | Antibody E (antibody, human IgG1, kappa, L234A L235A) heavy: not shown light: DIVMTQSPLSLPVTPGEPASISCKSSQSLLYSNGYNYLDWYLQRPGQSPQLLIYLGSNRASGVPDRFSGSGSGTDFTLKISRVEAEDVGVFYCMQALQTPLTFGGGTKVEIKRTVAAPSVFIFPPSDEQLKSGTASVVCLLNNFYPREAKVQWKVDNALQSGNSQESVTEQDSKDSTYSLSSTLTLSKADYEKHKVYACEVTHQGLSSPVTKSFNRGEC
no binding (tested: 1000 nM) | no binding (tested: about 67 nM) |  |  |  |  |  |  | Antibody E22 (antibody, human IgG1, kappa, L234A L235A, V domains shown) VH: QVQLQESGPGLVKPSETLSLTCTVSGGSIRDYYWSWIRQPPGKGLEWIGFIYYNGRTFYQSSLKSRVTISLDTSKNQFSLKMTSVTAADTAVYYCARVRAYSGIGLDGTDVWGQGTTVTVSS VL: DIVMTQSPLSLPVTPGEPASISCRSSQSLLYSTGYTYLDWYLQRPGQSPQLLIYGGSSRASGVPDRFSGSGSGTDFTLKISRVEAEDVGVFYCGQALQTPLTFGQGTKVEIKR
 |  | no binding (tested: 1000 nM) | no binding (tested: 100 nM) | 64.8 | ≤ 5 | ≤ 5 | no binding | Antibody A (antibody, human IgG1, kappa, L234A L235A) heavy: not shown light: DIQMTQSPSSLSASVGDRVTITCRASQDINNYLAWFQQKPGKAPKSLIYTASSLHSGVPSKFSGSGSGTDFTLTISSLQPEDFATYYCQQYVSYPYTFGQGTKLEIKRTVAAPSVFIFPPSDEQLKSGTASVVCLLNNFYPREAKVQWKVDNALQSGNSQESVTEQDSKDSTYSLSSTLTLSKADYEKHKVYACEVTHQGLSSPVTKSFNRGEC
 |  | no binding (tested: 1000 nM) | no binding (tested: 100 nM) | 69 | ≤ 5 | ≤ 5 | no binding | Antibody A10 (antibody, human IgG1, kappa, L234A L235A) heavy: not shown light: DIQMTQSPSSLSASVGDRVTITCRASQDINNYLAWFQQKPGKAPKSLIYTASSLHSGVPSKFSGSGSGTDFTLTISSLQPEDFATYYCQQYVSYPYTFGQGTKLEIKRTVAAPSVFIFPPSDEQLKSGTASVVCLLNNFYPREAKVQWKVDNALQSGNSQESVTEQDSKDSTYSLSSTLTLSKADYEKHKVYACEVTHQGLSSPVTKSFNRGEC
